Measurements reported in patent publication US9713645B2, “Short interference RNA gene delivery system for systemic circulation” (INDUSTRY-UNIVERSITY COOPERATION FOUNDATION HANYANG …, priority 2012, dated 2017).

Experiments:
cells = assay: Intracellular transfection efficiency of D-R9 structures complexed with luciferase DNA; assay type: cell-based; conditions: complexes with luciferase DNA, charge ratio 1:5; FIG. 4
Experimental: In the PEG-R9 structure, PEG was attached to C-(D-R9)-C. To confirm whether the C-(D-R9)-C structure was optimum, the C-(D-R9)-C structure was compared with G-(D-R9)-G, G-(D-R9)-C, and C-(D-R9)-G structures. Each of the G-(D-R9)-G, G-(D-R9)-C, C-(D-R9)-G, and C-(D-R9)-C delivery systems formed complexes with luciferase DNA in a charge ratio of 1:5. The intracellular transfection efficiencies of the complexes into cells were evaluated.

[1] = Sizes and zeta potentials of siVEGF conjugates with different delivery systems; assay type: physicochemical; conditions: FIG. 7
Experimental: siVEGF was conjugated with different kinds of delivery systems. The sizes and zeta potentials of the conjugates were analyzed to find which delivery system would be optimal for siRNA delivery. A group of cys-R9-cys, PEG-R9, and PEG-cys-R9-cys delivery systems and a group of PEG-cys-R9-cys, PEG-TAT, and PEG-cys-TAT-cys delivery systems were used, and their mean diameters were measured and compared.

SCC7 cells [2] = assay: Luciferase assay for gene expression efficiency; assay type: cell-based; conditions: plasmid luciferase 4 μg, charge ratio 12, 48 h, FIG. 6
Experimental: In this example, luciferase gene expression was measured using a luciferase assay kit and cell viability was analyzed by MTT assay.
A luciferase assay kit was purchased from Promega (USA). A DC protein assay kit and a bovine serum albumin standard were purchased from Bio-Rad Laboratories (USA). SCC7 cells were seeded onto a 24-well plate at 2×10^4 cells/well. 24 h after seeding, the cells were transfected with plasmid luciferase (4 μg)/PEG-R9 complexes (charge ratio 12).
PEI complexes in a charge ratio of 8 were used as control. After 48-h incubation, the cells was washed with PBS and treated with 150 μl of a 1× cell lysis buffer reagent for 20 min. The cell lysate was obtained by scrapping, transferred to a 1.5 ml microtube, and centrifuged at 13,000 rpm for 3 min. The luminescence values of the cell lysate were measured using a 96-well plate photometer (Berthold Detection Systems, Germany) with a 20 s integration time and were expressed as relative luminescence units (RLU) per mg of cell protein.
Proteins were determined with the DC protein assay kit using the bovine serum albumin standard. Based on the above procedure, PEG500 and PEG1000 were compared to find which one would be most optimal.

SCC7 cells [3] = assay: MTT assay for cell viability; assay type: cell-based; conditions: FIG. 6
Experimental: Cell viability was measured by MTT [3-(4,5-dimethylthiazol-2-yl)-2,5-diphenyltetrazolium bromide] assay.
SCC7 cells were incubated in a 24-well plate and treated with R9, PEG-R9 complexes, and PEI complexes in the specified charge ratios. 48 h after transfection, 50 μl of MTT reagent and 500 μl of a medium were added to each well, followed by culture at 37° C. for 3 h. After removal of the culture media, 500 μl of dimethyl sulfoxide (DMSO) was added to each well, followed by culture at room temperature for 20 min. The absorbance was measured at 570 nm.

Substance: Cys-(D-R9)-Cys [C-(D-R9)-C]
- intracellular transfection efficiency (cells): high transfection efficiencies

Substance: PEG-Cys-(D-R9)-Cys [PEG-R9]
- particle size compared with the PEG-unbound delivery system [1]: smaller
- intracellular gene delivery efficiency by luciferase assay (SCC7 cells [2]): efficiently deliver the gene into the cells
- cytotoxicity (in words) (SCC7 cells [3]; 48 h after transfection): much lower than the other gene delivery systems
- cell viability (SCC7 cells [3]): at least 95%
